Measured values: US20170131285A1 (INSERM INSTITUT NATIONAL DE LA SANTE ET DE LA RECHERCHE …, published 2017)

Molecular target: T1, recombinant HSP70 (Heat Shock 70 kDa Protein) (human, UniProt P0DMV8 1-641)
T1 construct: also called HSP72; human HSP70
Test: BLI (Octet Red), biotinylated A8 on streptavidin sensors, HSP70 in solution, 1:1 model global fit
Method: Protein-protein interaction experiments were conducted at 25° C. in PBS with an Octet Red instrument (Forte Bio, Menlo Park, Calif., USA) by biolayer interferometry (BLI). The ligand (cmHSP70 or A8 or TLR2) was biotinylated using EZ-Link NHS-PEG₄-biotin (Thermo Fisher Scientific, Bonn, Germany) according to the manufacturer's protocol and immobilized at a concentration of 20 μg/ml on streptavidin sensors (ForteBio, Menlo Park, Calif., USA). These functionalized biosensors were dipped into black Greiner 96-well microplates agitated at […] and filled with a solution of 200 μL containing the analyte. All sensorgrams were corrected for baseline drift by subtracting a control sensor exposed to running buffer only. Each KD was determined with a 1:1 stoichiometry model using a global fit with Rmax unlinked by sensor (Forte Bio, Data analysis software version 7.1.0.89).
Protein-protein interaction experiments were conducted with an Octet Red instrument (ForteBio, USA). The ligand (A8 or TLR2) was biotinylated using EZ-Link NHS-PEG₄-biotin (2 nM, 30 min, RT, Thermo Fisher Scientific, Germany) and immobilized on streptavidin sensors (96-well plate black, ForteBio, USA). […] Each KD was determined with a 1:1 stoichiometry model using a global fit with Rmax unlinked by sensor (ForteBio, Data analysis software version 7.1.0.89).

T1 sequence (P0DMV8 whole entry): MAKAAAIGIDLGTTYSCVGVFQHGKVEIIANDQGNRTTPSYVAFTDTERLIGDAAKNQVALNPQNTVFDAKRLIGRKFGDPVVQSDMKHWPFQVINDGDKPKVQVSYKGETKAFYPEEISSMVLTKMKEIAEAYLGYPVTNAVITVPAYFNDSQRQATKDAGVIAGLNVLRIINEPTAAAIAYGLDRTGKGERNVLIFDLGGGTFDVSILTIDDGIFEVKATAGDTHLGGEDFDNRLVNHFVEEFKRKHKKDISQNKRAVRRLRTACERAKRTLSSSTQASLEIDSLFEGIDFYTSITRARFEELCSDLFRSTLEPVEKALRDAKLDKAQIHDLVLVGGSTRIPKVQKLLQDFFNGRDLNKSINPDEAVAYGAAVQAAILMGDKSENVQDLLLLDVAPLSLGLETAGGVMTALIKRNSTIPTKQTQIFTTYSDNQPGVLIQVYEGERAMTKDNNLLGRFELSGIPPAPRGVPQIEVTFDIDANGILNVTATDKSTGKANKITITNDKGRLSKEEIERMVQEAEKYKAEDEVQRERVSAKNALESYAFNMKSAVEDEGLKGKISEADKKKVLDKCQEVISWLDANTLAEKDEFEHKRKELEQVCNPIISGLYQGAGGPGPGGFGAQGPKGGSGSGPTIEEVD

Kd: 2.2 nM
B1: peptide aptamer A8 (peptide)
peptide: SPWPRPTY
modifications: biotinylated with EZ-Link NHS-PEG4-biotin when immobilised on streptavidin sensors for BLI (site not stated); no modification stated for the solution assays
notes: also called A8 peptide aptamer; HSP70 peptide aptamer A8
